Experimental data taken from patent US20100272712.
Residue numbers refer to the chain shown, from its start. Names and notes keep the numbering of the source.

B1: Flag-tagged MKP7-ΔC (A.A.1-317, retaining the catalytic domain) (enzyme, UniProt Q9BY84 1-317, looked up, species assumed)
chain: MAHEMIGTQIVTERLVALLESGTEKVLLIDSRPFVEYNTSHILEAININCSKLMKRRLQQDKVLITELIQHSAKHKVDIDCSQKVVVYDQSSQDVASLSSDCFLTVLLGKLEKSFNSVHLLAGGFAEFSRCFPGLCEGKSTLVPTCISQPCLPVANIGPTRILPNLYLGCQRDVLNKELMQQNGIGYVLNASNTCPKPDFIPESHFLRVPVNDSFCEKILPWLDKSVDFIEKAKASNGCVLVHCLAGISRSATIAIAYIMKRMDMSLDEAYRFVKEKRPTISPNFNFLGQLLDYEKKIKNQTGASGPKSKLKLLHLE
modifications: Flag tag
B2: Flag-tagged MKP7-ΔC (C244S) (enzyme, UniProt Q9BY84 1-317 with C244S, looked up, species assumed)
chain: B1 chain with C244S
modifications: Flag tag
B3: Myc-MKP7 (enzyme, UniProt Q9BY84 1-665, looked up, species assumed)
chain: MAHEMIGTQIVTERLVALLESGTEKVLLIDSRPFVEYNTSHILEAININCSKLMKRRLQQDKVLITELIQHSAKHKVDIDCSQKVVVYDQSSQDVASLSSDCFLTVLLGKLEKSFNSVHLLAGGFAEFSRCFPGLCEGKSTLVPTCISQPCLPVANIGPTRILPNLYLGCQRDVLNKELMQQNGIGYVLNASNTCPKPDFIPESHFLRVPVNDSFCEKILPWLDKSVDFIEKAKASNGCVLVHCLAGISRSATIAIAYIMKRMDMSLDEAYRFVKEKRPTISPNFNFLGQLLDYEKKIKNQTGASGPKSKLKLLHLEKPNEPVPAVSEGGQKSETPLSPPCADSATSEAAGQRPVHPASVPSVPSVQPSLLEDSPLVQALSGLHLSADRLEDSNKLKRSFSLDIKSVSYSASMAASLHGFSSSEDALEYYKPSTTLDGTNKLCQFSPVQELSEQTPETSPDKEEASIPKKLQTARPSDSQSKRLHSVRTSSSGTAQRSLLSPLHRSGSVEDNYHTSFLFGLSTSQQHLTKSAGLGLKGWHSDILAPQTSTPSLTSSWYFATESSHFYSASAIYGGSASYSAYSCSQLPTCGDQVYSVRRRQKPSDRADSRRSWHEESPFEKQFKRRSCQMEFGESIMSENRSREELGKVGSQSSFSGSMEIIEVS
modifications: full-length Myc tag
B4: Flag-tagged MKP7-WT (enzyme, UniProt Q9BY84 1-665, looked up, species assumed)
chain: B3 chain
modifications: full-length Flag tag

Tested on: active JNK3 purified protein (Upstate)

Protein | in vitro phosphatase assay (JNK3 phosphorylation by western blot) | in vitro phosphatase activity analysis (JNK3 phosphorylation by western blot) | in vitro phosphatase activity analysis after GSNO treatment of MKP7
B1 | Both MKP7-WT and MKP7-ΔC possessed strong phosphatase activities as detected by the decreased phosphorylation of JNK3 | – | –
B2 | the phosphatase activity of MKP7-ΔC (C^244S) was much lower than that of MKP7-WT or MKP7-ΔC protein, and the activity after GSNO treatment was essentially unchanged | – | –
B3 | – | The ectopically-expressed MKP7 protein exhibited strong phosphatase activity as demonstrated by the decrease in JNK3 phosphorylation | nitrosylation of MKP7 by GSNO markedly inhibited MKP7 phosphatase activity
B4 | Both MKP7-WT and MKP7-ΔC possessed strong phosphatase activities as detected by the decreased phosphorylation of JNK3 | – | –
